The results in this text go back to paper PMC5374410, “Identification of a Potent Allosteric Inhibitor of Human Protein Kinase CK2 by Bacterial Surface Display Library Screening” (Pharmaceuticals, 2017).

The target in the experiment is CK2β^1–193-pAzF coupled to fluorescein (human) (UniProt P67870). In words: MST; B2 titrated (7.6 nM to 125 or 250 µM) to 100 nM fluorophore-labelled CK2α-DBCO-Sulfo-Cy5 or CK2β^1-193-Flu; 50 mM Tris/HCl pH 7.5, 25 mM NaCl, 20 mM MgCl2, Tween-20, DMSO; 37 °C, MST power 60%; Monolith NT.115; three independent measurements.

For DCRGLIVMIKLH [peptide B2 (free synthetic peptide)], the Kd (usually a measure of binding affinity in units of concentration) was more than 100 µM.
